{"source": "paper PMC6548343", "molecular_target": "Nucleosomes (Nuc207) with 30 bp linker DNA at both ends", "assay": "EM 3D reconstruction of the assembled complex; ~30 μg/ml actin/Arp module with a 10-fold molar excess of Nuc207, 2 h at 4°C, 20 mM HEPES pH 8.0, 40 mM KOAc, 5 mM MgCl2, no ATP; two binding states", "data": [{"substance": "INO80 N-terminal subcomplex (N.com) (from UniProt P53115 356-691; P60010 1-375; P80428 1-489; Q12386 1-881; P35189 1-244; Q08561 1-116)", "values": [{"measurement": "stoichiometry N", "value": 1}]}]}
